Measured values published in patent US20160130303A1 (RAMOT AT TEL AVIV UNIVERSITY, published 2016).
Where no end group is shown, it is not given here. [ ]: non-standard residue; d: D form. The star is where a group is joined. Myristoyl = CCCCCCCCCCCCCC(=O)*; pS = N[C@@H](COP(=O)(O)O)C(=O)O

Molecular target: wild-type (WT) GSK-3β (human, UniProt P49841 1-420, phosphorylated at Tyr 216 (shown by western blot))
Test: cell-based or functional assay

Chain of wild-type (WT) GSK-3β (P49841 other isoform, or with tags, fused parts or gaps limits assumed): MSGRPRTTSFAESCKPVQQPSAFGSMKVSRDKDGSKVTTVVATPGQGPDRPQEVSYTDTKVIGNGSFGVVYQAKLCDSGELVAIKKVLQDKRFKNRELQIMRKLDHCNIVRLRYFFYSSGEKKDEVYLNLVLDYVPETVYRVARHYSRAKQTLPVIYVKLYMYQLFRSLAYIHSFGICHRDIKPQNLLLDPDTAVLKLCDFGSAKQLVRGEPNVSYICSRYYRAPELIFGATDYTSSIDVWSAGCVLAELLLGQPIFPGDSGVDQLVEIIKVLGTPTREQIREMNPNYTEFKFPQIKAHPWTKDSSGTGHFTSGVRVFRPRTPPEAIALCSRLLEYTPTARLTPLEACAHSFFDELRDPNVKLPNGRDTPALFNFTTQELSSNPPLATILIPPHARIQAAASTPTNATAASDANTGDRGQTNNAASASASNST

IC50, in vitro kinase assays with GSK-3β at increasing inhibitor concentrations	inhibition of GSK-3β in in vitro kinase assays (substrate phosphorylation, no inhibitor = 100%)	Binder
~1 µM		Myristoyl-GKEAPPAPPP[pS]P [L806-mts, Myr-GKEAPPAPPPS(p)P]
	~2 fold relative to L803	KEAPPAPPA[pS]P [PQ9A (L803 variant where Gln9 was replaced by alanine)]
